Values quoted from earlier work in paper PMC2917178.

Target: Lys66 (UniProt position 148, FTKKMKENAKK)
Conditions: native (folded) state

Staphylococcal nuclease V66K variant (Staphylococcus aureus; V66K)
pKa: 6.4
